Where “and” joins values, the source holds several entries; their conditions need not be identical. Equal entries are not always repeated. Where two headings read alike, the source gives them in different places.
Assays:
DLL4 [1] = target: T1, DLL4 (human, UniProt Q9NR61); test: ELISA
DLL4 [2] = target: T1, DLL4; test: SPR
DLL4 [3] = target: T1, DLL4; test: ELISA; remark: listed apart in the source
DLL4 [4] = target: T1, DLL4; test: competition
DLL4 [5] = target: T1, DLL4; test: ELISA; remark: listed apart in the source
IGF2 [6] = target: T2, IGF2 (human, UniProt P01344); test: ELISA
IGF1 [7] = target: T3, IGF1 (human, UniProt P05019); test: ELISA
IGF1 [8] = target: T3, IGF1; test: SPR
IGF2 [9] = target: T2, IGF2; test: SPR
IGF2 [10] = target: T2, IGF2; test: ELISA; remark: listed apart in the source
IGF1 [11] = target: T3, IGF1; test: ELISA; remark: listed apart in the source
NRP1 [12] = target: T4, NRP1 (human, UniProt O14786); test: SPR
NRP1 [13] = target: T4, NRP1; test: ELISA

T1 sequence (Q9NR61 27-524): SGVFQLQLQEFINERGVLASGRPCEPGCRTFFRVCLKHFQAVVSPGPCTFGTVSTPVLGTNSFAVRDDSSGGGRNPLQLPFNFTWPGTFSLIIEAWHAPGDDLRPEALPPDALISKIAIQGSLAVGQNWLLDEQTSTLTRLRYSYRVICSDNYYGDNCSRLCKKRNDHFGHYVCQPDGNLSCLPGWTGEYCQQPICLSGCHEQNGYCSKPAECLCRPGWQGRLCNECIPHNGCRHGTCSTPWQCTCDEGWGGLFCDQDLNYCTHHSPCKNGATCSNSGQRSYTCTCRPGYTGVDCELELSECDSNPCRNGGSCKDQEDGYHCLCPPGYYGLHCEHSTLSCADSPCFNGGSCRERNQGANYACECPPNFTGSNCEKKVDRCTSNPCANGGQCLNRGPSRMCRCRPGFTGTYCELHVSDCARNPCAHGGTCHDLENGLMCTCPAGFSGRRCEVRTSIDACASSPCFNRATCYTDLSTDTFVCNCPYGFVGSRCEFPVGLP

B1: AB015 (antibody)
chain 1: EVQLVESGGGLVQPGGSLRLSCAASGFTFTDNWISWVRQAPGKGLEWVGYISPNSGFTYYADSVKGRFTISADTSKNTAYLQMNSLRAEDTAVYYCARDNFGGYFDYWGQGTLVTVSS
chain 2: DIQMTQSPSSLSASVGDRVTITCRASQDVSTAVAWYQQKPGKAPKLLIYSASFLYSGVPSRFSGSGSGTDFTLTISSLQPEDFATTYYCQQSYTGTVTFGQGTKVEIKR
- EC50 (DLL4 [1]): 0.03 nM
- Kd (DLL4 [2]): 0.414 nM
- EC50 (DLL4 [3]): 0.31 nM
- IC50 (DLL4 [4]): 0.37 nM and 0.4 nM

B2: DVD043 DLL4 arm (antibody)
chain 1: EVQLVESGGGLVQPGGSLRLSCAASGFTFTDNWISWVRQAPGKGLEWVGYISPNSGFTYYADSVKGRFTISADTSKNTAYLQMNSLRAEDTAVYYCARDNFGGYFDYWGQGTLVTVSS
chain 2: DIQMTQSPSSLSASVGDRVTITCRASQDVSTAVAWYQQKPGKAPKLLIYSASFLYSGVPSRFSGSGSGTDFTLTISSLQPEDFATTYYCQQSYTGTVTFGQGTKVEIKR
modifications: DVD-Ig inner
- EC50 (DLL4 [1]): 0.5 nM
- Kd (DLL4 [2]): 2.32 nM
- EC50 (DLL4 [5]): 0.67 nM
- EC50 (DLL4 [3]): 2.12 nM
- IC50 (DLL4 [4]): 13.1 nM

B3: DVD030 IGF1,2 arm (antibody, V domains shown)
VH: QVQLVQSGAEVKKPGASVKVSCKASGYTFTSYDINWVRQATGQGLEWMGWMNPNSGNTGYAQKFQGRVTMTRNTSISTAYMELSSLRSEDTAVYYCARDPYYYYYGMDVWGQGTTVTVSS
VL: QSVLTQPPSVSAAPGQKVTISCSGSSSNIENNHVSWYQQLPGTAPKLLIYDNNKRPSGIPDRFSGSKSGTSATLGITGLQTGDEADYYCETWDTSLSAGRVFGGGTKLTVLG
modifications: DVD-Ig outer
- EC50 (IGF2 [6]): 5.49 nM
- EC50 (IGF1 [7]): 1.8 nM
- Kd (IGF1 [8]): 0.292 nM
- Kd (IGF2 [9]): 0.00234 nM
- EC50 (IGF2 [10]): 5.5 nM
- EC50 (IGF1 [11]): 1.75 nM

B4: DVD044 DLL4 arm (antibody)
chain 1: EVQLVESGGGLVQPGGSLRLSCAASGFTFTDNWISWVRQAPGKGLEWVGYISPNSGFTYYADSVKGRFTISADTSKNTAYLQMNSLRAEDTAVYYCARDNFGGYFDYWGQGTLVTVSS
chain 2: DIQMTQSPSSLSASVGDRVTITCRASQDVSTAVAWYQQKPGKAPKLLIYSASFLYSGVPSRFSGSGSGTDFTLTISSLQPEDFATTYYCQQSYTGTVTFGQGTKVEIKR
modifications: DVD-Ig outer
- EC50 (DLL4 [1]): 0.06 nM
- Kd (DLL4 [2]): 0.347 nM
- EC50 (DLL4 [5]): 0.25 nM
- EC50 (DLL4 [3]): 0.53 nM
- IC50 (DLL4 [4]): 0.5 nM

B5: AB016 (antibody, V domains shown)
VH: EVQLVESGGGLVQPGGSLRLSCAASGFSFSSEPISWVRQAPGKGLEWVSSITGKNGYTYYADSVKGRFTISADTSKNTAYLQMNSLRAEDTAVYYCARWGKKVYGMDVWGQGTLVTVSS
VL: DIQMTQSPSSLSASVGDRVTITCRASQSISSYLAWYQQKPGKAPKLLIYGASSRASGVPSRFSGSGSGTDFTLTISSLQPEDFATYYCQQYMSVPITFGQGTKVEIKR
- Kd (NRP1 [12]): 2.67 nM
- EC50 (NRP1 [13]): 0.58 nM

B6: DVD029 IGF1,2 arm (antibody, V domains shown)
VH: QVQLVQSGAEVKKPGASVKVSCKASGYTFTSYDINWVRQATGQGLEWMGWMNPNSGNTGYAQKFQGRVTMTRNTSISTAYMELSSLRSEDTAVYYCARDPYYYYYGMDVWGQGTTVTVSS
VL: QSVLTQPPSVSAAPGQKVTISCSGSSSNIENNHVSWYQQLPGTAPKLLIYDNNKRPSGIPDRFSGSKSGTSATLGITGLQTGDEADYYCETWDTSLSAGRVFGGGTKLTVLG
modifications: DVD-Ig inner
- EC50 (IGF2 [6]): 206 nM
- EC50 (IGF1 [7]): 229 nM
- Kd (IGF1 [8]): 6.36 nM
- Kd (IGF2 [9]): 0.302 nM
- EC50 (IGF2 [10]): 206 nM
- EC50 (IGF1 [11]): 229 nM

B7: DVD050 NRP1 arm (antibody, V domains shown)
VH: EVQLVESGGGLVQPGGSLRLSCAASGFSFSSEPISWVRQAPGKGLEWVSSITGKNGYTYYADSVKGRFTISADTSKNTAYLQMNSLRAEDTAVYYCARWGKKVYGMDVWGQGTLVTVSS
VL: DIQMTQSPSSLSASVGDRVTITCRASQSISSYLAWYQQKPGKAPKLLIYGASSRASGVPSRFSGSGSGTDFTLTISSLQPEDFATYYCQQYMSVPITFGQGTKVEIKR
modifications: DVD-Ig outer
- Kd (NRP1 [12]): 1.44 nM
- EC50 (NRP1 [13]): 0.46 nM
